Experimental data from PMC3471852.

Molecular target: β-arrestin-2 (UniProt P32121)
Assay: anti-HA co-IP after DSS cross-linking, anti-Flag blot
Conditions: reference: wild type C3aR

other: percent decrease vs wild type (sites T463,S465,T466,S470)	binding against the reference (sites S459,T463,S465,T466,S470,S475,S479,T480,T481)	Substance
74%		C3a receptor (C3aR) (from UniProt Q16581) MT2 (T463A/S465A/T466A/S470A)
	lost	C3a receptor (C3aR) (from UniProt Q16581) MT7 (S459A plus MT1 and MT2 substitutions)
